# Test results taken from patent US20130095122A1, “Peptides or Antibodies Which Bind to Melanoma Inhibitory Activity (MIA) Protein” (priority 2010, published 2013).
# T1: MIA protein dimer (Homo sapiens, UniProt Q16674)
# T1 construct: made in house; host or cells: cell-free Rapid Translation System RTS 500 E. coli HY Disulfite Kit (Roche)
# T1 sequence (Q16674 25-131): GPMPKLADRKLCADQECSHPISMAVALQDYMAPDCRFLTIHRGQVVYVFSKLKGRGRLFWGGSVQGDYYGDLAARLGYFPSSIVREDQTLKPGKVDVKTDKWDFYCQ
# B1: melanoma inhibitory activity (MIA) protein, recombinant human wild type (other)
# chain: GPMPKLADRKLCADQECSHPISMAVALQDYMAPDCRFLTIHRGQVVYVFSKLKGRGRLFWGGSVQGDYYGDLAARLGYFPSSIVREDQTLKPGKVDVKTDKWDFYCQ
# notes: In the HTFP assay one copy is labelled with Ru(bpy)3 (in solution) and the other is a biotin conjugate immobilised on streptavidin plates; 15N-enriched MIA was used for NMR; also called wt MIA; MIA wt (RTS)
# Assays:
# hMSC = test: Hanging drop assay (chondrogenic differentiation); format: cell-based, human; details: after day 4 (FIG. 9)
# Description: To generate spheroids the hMSC were detached from the culture flask by adding 1 ml Trypsin-EDTA (Provitro). After incubation for a 5 minutes 1 ml neutralizing solution (Provitro) and 8 ml HMSC proliferation medium were added. After centrifugation for 4 min at 1200 rpm and resuspension in Incomplete Chondrogenesis Induction Medium (DMEM with glucose (4.5 g/L), penicillin (400 units/ml) streptomycin (50 μg/ml), L-glutamine (300 μg/ml), sodium pyruvate (1 mM), L-ascorbic acid 2-phosphate (0.17 mM), L-proline ([…]), dexamethasone (1 μM) and ITS premix (BD Biosciences, Heidelberg, Germany)), the cells were counted and adjusted to 50,000 cells/ml. 20% methocel (6 g methyl cellulose (Sigma-Aldrich, Munich, Germany), 250 ml basal medium)) was added and 25 μl of the cells suspension were dropped onto the cover of a 9 mm petri dish. For each experimental condition 10 drops were used. The petri dish was filled with PBS and the cover dish was inverted and incubated for 72 h under a humidified atmosphere of 8% CO2 at 37° C. for 1, 2, 4 and 7 d followed by RNA isolation or alcian blue staining. For treatment, TGF-beta3 (10 ng/ml, Biomol, Hamburg, Germany) was added. At day 4 NA was extracted and analysed. The experiment was repeated 4 times.
# MIA protein dimer = target: T1, MIA protein dimer; test: Western blot analysis of MIA dimer bands; format: biochemical; details: western blotting, FIG. 6
# Description: (§1) Protein samples were denaturated at 70° C. for 10 min after addition of reducing and denaturing Roti-Load buffer (Roth, Karlsruhe, Germany) and subsequently separated on sodium dodecyl sulfate 12.75% polyacrylamid gels (SDS-PAGE) (Invitrogen, Groningen, The Netherlands). In the multimerization studies, MIA protein (1 μg) was incubated with AR71 (2.5 μg) overnight at RT before being treated as described above. After transferring the proteins onto a polyvinylidene fluoride (PVDF) membrane (BioRad, Richmond, Va., USA), the membrane was blocked using 3% BSA/PBS for 1 h at RT and incubated with a 1:150 dilution of primary polyclonal rabbit anti MIA antibody (Biogenes, Berlin, Germany) in 3% BSA/PBS overnight at 4° C. After washing in PBS the membrane was incubated with a 1:2000 dilution of an […] coupled secondary antibody (Chemikon, Hofheim, Germany) for 2 h at RT. Finally, after washing steps, immunoreactions were visualized by nitro blue tetrazolium/5-bromo-4-chloro-3-indolyl phosphate (NBT/BCIP) (Invitrogen, Karlsruhe, Germany) staining.
# Sox9 mRNA in human MSC = test: Micromass assay (chondrogenic differentiation induced by TGFβ3); format: cell-based; details: after days 3 and 7 (FIG. 8)
# Description: For analysis of chondrogenesis human MSC differentiation was performed in high density culture. For this, 3×10^5 cells were seeded into each well of a six-well plate. Cells were cultured for the indicated period in induction medium including DMEM (PAA), high glucose (Sigma), 20% fetal calf serum (FCS, PAN Biotech GmbH), MEM Vitamins (Invitrogen), penicillin (100 U/ml), streptomycin (10 μg/ml) (both Sigma), Amphotericin B (2.5 μg/ml) (PAN Biotech GmbH), 0.1 μM dexamethasone, 1 mM sodium pyruvate, 0.17 mM ascorbic acid-2-phosphate, 0.35 mM proline (all Sigma), insulin (5 μg/ml), transferring (5 μg), selenious acid (5 ng) (ITS Premix, Becton Dickinson) and 10 ng/ml human TGF-β3 (R&D Systems). The medium was changed every second day. All groups were done in triplicate. Each experiment was repeated three times. Analysis was performed on RNA level.
# Mel Im melanoma cells = test: Boyden chamber invasion assay (MIA activity); format: cell-based, human; details: MIA pre-incubated with peptide, Mel Im cells (FIG. 7)
# Description: Invasion assays were performed in Boyden Chambers containing polycarbonate filters with 8-μm pore size (Neuro Probe, Gaithersburg, Md., USA) essentially as described previously.^13 Filters were coated with matrigel, a commercially available reconstituted basement membrane (diluted 1:3 in H2O; BD Bioscience, Bradford, Mass., USA). The lower compartment was filled with fibroblast-conditioned medium used as a chemo attractant. Mel Im melanoma cells were harvested by trypsinization for 2 min at RT, resuspended in DMEM without FCS at a density 2.5×10^4 cells/mL, and placed in the upper compartment of the chamber. Except for the control experiment with untreated cells and experiments where cells were only treated with the respective peptide, MIA was added to the cell suspension at a final concentration of 200 ng/mL. Peptide AR71 (sequence: Ac-FHWRYPLPLPGQ-NH2) was used at a final concentration of 1 μM. MIA expressing murine B16 melanoma cells stably co-transfected with Sig-AR71-HisTag containing pCMX-PL1 vector^27 and an antibiotic resistance comprising plasmid (pCDNA3), and the respective mock control were also investigated for their ability to migrate. Therefore, cells were harvested by trypsinization for 2 min at RT, resuspended in DMEM without FCS at a density 2.5×10^4 cells/mL, and placed in the upper compartment of the chamber. After incubation at 37° C. for 4 h filters were removed. Cells adhering to the lower surface of the filter were fixed, stained, and counted. Experiments were carried out in triplicates and repeated at least three times.
# [1] = target: B1; test: HTFP competition assay: displacement of MIA-Ru(bpy)3 from immobilised MIA-biotin
# Description: (§2) In the control lanes the FP signal of MIA-Ru(bpy)₃ was measured in a well coated with MIA-biotin compared to an uncoated well. The significant increase in FP in the well coated with MIA-biotin indicates binding of MIA-Ru(bpy)₃ to the immobilized MIA-biotin. The binding of MIA-inhibitory compound AR71 promotes dissociation of MIA dimers and displaces the surface-bound MIA-Ru(bpy)₃, as reflected by a decrease in fluorescence polarization signal. […] Pre-incubation of MIA with the respective inhibitory peptide results in a complete neutralization of the MIA effect.
# (§3) All measurements were performed at RT on a Polarstar Optima microplate reader (BMG Labtech, Offenburg, Germany). A 390-10 nm bandpass filter was used for excitation while a 520 nm longpass filter was used for the emission light. Even though the extinction coefficient is higher at longer wavelengths, the inventors chose a shorter excitation wavelength as this led to higher polarization values. MIA-Ru(bpy)₃ was prepared and tested for functional activity as described previously.¹⁴ A MIA-Ru(bpy)₃ concentration of 55 fM was used in all experiments. […] All measurements were performed in DPBS without calcium or magnesium (PAN Biotech GmbH, Aidenbach, Germany).
# [2] = target: the molecule itself; test: HTFP assay: MIA-Ru(bpy)3 on immobilised MIA-biotin, increase in FP signal
# Description: as §2, §3
# [3] = target: the molecule itself; test: Western blot, dimer band (FIG. 1B legend)
# Description: as §1, with “In” for “Protein samples were denaturated at 70° C. for 10 min after addition of reducing and denaturing Roti-Load buffer (Roth, Karlsruhe, Germany) and subsequently separated on sodium dodecyl sulfate 12.75% polyacrylamid gels (SDS-PAGE) (Invitrogen, Groningen, The Netherlands). In”
# (§4) Having identified the most likely positions of the dimerization interfaces, mutants of MIA were tested for their capability to form dimers by Western blot analysis (FIG. 1B). MIA mutants were expressed in an in vitro transcription/translation system. […] The sites of mutations not affecting functional activity (FIG. 1D, depicted by amino acid labels D29, S81 etc.) are located outside the dimerization regions, whereas G61R (FIG. 1D, depicted by G61) is buried in the dimerization cleft (depicted by the darker grey are in the left panel) in close proximity to the distal loop.
# [4] = target: the molecule itself; test: Western blot for dimer band, RTS-expressed mutant
# Description: as §1, with “In” for “Protein samples were denaturated at 70° C. for 10 min after addition of reducing and denaturing Roti-Load buffer (Roth, Karlsruhe, Germany) and subsequently separated on sodium dodecyl sulfate 12.75% polyacrylamid gels (SDS-PAGE) (Invitrogen, Groningen, The Netherlands). In”
# as §4
# [5] = target: B1; test: HTFP competition assay
molecule,measurement,setting,value
FHWH (Peptide Sequence identified from HTFP assay screening) [JPT55],induction of Aggrecan during differentiation,hMSC,inhibit the induction
same,induction of Sox9 during differentiation,hMSC,inhibit the induction
same,induction of collagen type II during differentiation,hMSC,inhibit the induction
FHWRYPDPDPGQ (Peptide Sequence identified from HTFP assay screening) [JPT79],inhibition of dimerization of MIA,MIA protein dimer,efficiently inhibited
HHH (Peptide Sequence identified from HTFP assay screening) [JPT71],induction of Sox9 mRNA by TGFβ3,Sox9 mRNA in human MSC,inhibit the induction of Sox9 mRNA by TGFβ3 significantly
WHF (Peptide Sequence identified from HTFP assay screening) [JPT67],inhibition of MIA-activity (neutralization of the MIA effect on invasion),Mel Im melanoma cells,inhibit MIA-activity
WWW (Peptide Sequence identified from HTFP assay screening) [JPT73],inhibition of MIA-activity (neutralization of the MIA effect on invasion),Mel Im melanoma cells,inhibit MIA-activity
same,induction of Aggrecan during differentiation,hMSC,inhibit the induction
same,induction of Sox9 during differentiation,hMSC,inhibit the induction
same,induction of collagen type II during differentiation,hMSC,inhibit the induction
Ac-FHWRYPLPLPGQ-NH2 (Dodecapeptide previously identified by phage display) [peptide AR71 (Ac-FHWRYPLPLPGQ-NH2)],binding result,[1],binds
B1,binding result,[2],binds
"MIA mutant D29G/Y69H (other, Expressed in the RTS in vitro transcription/translation system) GPMPKLADRKLCADQECSHPISMAVALQGYMAPDCRFLTIHRGQVVYVFSKLKGRGRLFWGGSVQGDYHGDLAARLGYFPSSIVREDQTLKPGKVDVKTDKWDFYCQ",binding result,[3],binds
"MIA mutant K91N (other, Expressed in the RTS in vitro transcription/translation system) GPMPKLADRKLCADQECSHPISMAVALQDYMAPDCRFLTIHRGQVVYVFSKLKGRGRLFWGGSVQGDYYGDLAARLGYFPSSIVREDQTLNPGKVDVKTDKWDFYCQ",binding result,[3],binds
"MIA mutant G61R (other, Expressed in the RTS in vitro transcription/translation system, unpurified) GPMPKLADRKLCADQECSHPISMAVALQDYMAPDCRFLTIHRGQVVYVFSKLKGRGRLFWRGSVQGDYYGDLAARLGYFPSSIVREDQTLKPGKVDVKTDKWDFYCQ",binding result,[4],no binding
"MIA mutant V46F/S81P (other, Expressed in the RTS in vitro transcription/translation system) GPMPKLADRKLCADQECSHPISMAVALQDYMAPDCRFLTIHRGQVFYVFSKLKGRGRLFWGGSVQGDYYGDLAARLGYFPPSIVREDQTLKPGKVDVKTDKWDFYCQ",binding result,[3],binds
"MIA mutant T89P (other, Expressed in the RTS in vitro transcription/translation system) GPMPKLADRKLCADQECSHPISMAVALQDYMAPDCRFLTIHRGQVVYVFSKLKGRGRLFWGGSVQGDYYGDLAARLGYFPSSIVREDQPLKPGKVDVKTDKWDFYCQ",binding result,[3],binds
WHWRYP (also called WHWRYP) [peptide JPT26],binding result,[5],binds
FHWRYPDPDPGQ [peptide JPT79],binding result,[5],binds
FHWRYPLPLPGQHHHHHH [peptide JPT62],binding result,[5],binds
HHHHHHFHWRYPLPLPGQ [peptide JPT61],binding result,[5],binds
FHWRYPGPGPGQ [peptide JPT4],binding result,[5],binds
FHWH (also called FHWH) [peptide JPT55],binding result,[5],binds
